How the values were obtained:
[1] = tested on: HeLa Kyoto; experiment: thermal stability score vs G1/S (z-score of summed log2 fold changes over temperatures); higher = more thermally stable than in G1/S
[2] = tested on: HeLa Kyoto; experiment: solubility change mitosis vs G1/S (difference of NP-40 vs SDS log2 ratios) (log2 ratio difference); higher = more soluble in mitosis
[3] = tested on: HeLa Kyoto; experiment: melting temperature (median over replicates), in situ; higher = more thermally stable
[4] = tested on: HeLa Kyoto; experiment: solubility in G1/S (NP-40 vs SDS abundance) (log2 ratio); higher = more soluble; settings: cell cycle stage: G1/S
[5] = cell cycle stage: early G1 (4.5 h after nocodazole release)
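Wherever melting temperature (median over replicates), in situ is given: HeLa Kyoto cells synchronized by double thymidine or nocodazole block, proteins quantified by TMT10plex mass spectrometry, three independent biological replicates.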
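Wherever solubility change mitosis vs G1/S (difference of NP-40 vs SDS log2 ratios) is given: synchronized HeLa Kyoto cells (double thymidine block for G1/S, nocodazole release for mitosis), protein amounts in NP-40 versus SDS lysates quantified by mass spectrometry, three biological replicates.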
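Wherever solubility in G1/S (NP-40 vs SDS abundance) is given: HeLa Kyoto cells arrested at G1/S by double thymidine block, proteins quantified by TMT10plex mass spectrometry in mild NP-40 versus SDS extracts, three biological replicates.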
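Wherever thermal stability score vs G1/S (z-score of summed log2 fold changes over temperatures) is given: synchronized HeLa Kyoto cells, proteins quantified by TMT10plex mass spectrometry, three biological replicates, mitosis taken 0.5 h after nocodazole release, G1/S directly after double thymidine block.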

| Sequence | thermal stability score [1, 5] | thermal stability score ([1]; cell cycle stage: mitosis) | solubility change mitosis (log2) [2] | melting temperature ([3]; cell cycle stage: G1/S) | melting temperature ([3]; cell cycle stage: mitosis) | solubility in G1/S (log2) [4] |
| --- | --- | --- | --- | --- | --- | --- |
| MAKMEVKTSLLDNMIGVGDMVLLEPLNEETFINNLKKRFDHSEIYTYIGSVVISVNPYRSLPIYSPEKVEEYRNRNFYELSPHIFALSDEAYRSLRDQDKDQCILITGESGAGKTEASKLVMSYVAAVCGKGAEVNQVKEQLLQSNPVLEAFGNAKTVRNDNSSRFGKYMDIEFDFKGDPLGGVISNYLLEKSRVVKQPRGERNFHVFYQLLSGASEELLNKLKLERDFSRYNYLSLDSAKVNGVDDAANFRTVRNAMQIVGFMDHEAESVLAVVAAVLKLGNIEFKPESRVNGLDESKIKDKNELKEICELTGIDQSVLERAFSFRTVEAKQEKVSTTLNVAQAYYARDALAKNLYSRLFSWLVNRINESIKAQTKVRKKVMGVLDIYGFEIFEDNSFEQFIINYCNEKLQQIFIELTLKEEQEEYIREDIEWTHIDYFNNAIICDLIENNTNGILAMLDEECLRPGTVTDETFLEKLNQVCATHQHFESRMSKCSRFLNDTSLPHSCFRIQHYAGKVLYQVEGFVDKNNDLLYRDLSQAMWKASHALIKSLFPEGNPAKINLKRPPTAGSQFKASVATLMKNLQTKNPNYIRCIKPNDKKAAHIFNEALVCHQIRYLGLLENVRVRRAGYAFRQAYEPCLERYKMLCKQTWPHWKGPARSGVEVLFNELEIPVEEYSFGRSKIFIRNPRTLFKLEDLRKQRLEDLATLIQKIYRGWKCRTHFLLMKKSQIVIAAWYRRYAQQKRYQQTKSSALVIQSYIRGWKARKILRELKHQKRCKEAVTTIAAYWHGTQARRELRRLKEEARNKHAIAVIWAYWLGSKARRELKRLKEEARRKHAVAVIWAYWLGLKVRREYRKFFRANAGKKIYEFTLQRIVQKYFLEMKNKMPSLSPIDKNWPSRPYLFLDSTHKELKRIFHLWRCKKYRDQFTDQQKLIYEEKLEASELFKDKKALYPSSVGQPFQGAYLEINKNPKYKKLKDAIEEKIIIAEVVNKINRANGKSTSRIFLLTNNNLLLADQKSGQIKSEVPLVDVTKVSMSSQNDGFFAVHLKEGSEAASKGDFLFSSDHLIEMATKLYRTTLSQTKQKLNIEISDEFLVQFRQDKVCVKFIQGNQKNGSVPTCKRKNNRLLEVAVP [MYO1B] | -0.836 | -0.507 | -0.0354 | 50.5 °C | 50.1 °C | -0.528 |
| MAKPAQGAKYRGSIHDFPGFDPNQDAEALYTAMKGFGSDKEAILDIITSRSNRQRQEVCQSYKSLYGKDLIADLKYELTGKFERLIVGLMRPPAYCDAKEIKDAISGIGTDEKCLIEILASRTNEQMHQLVAAYKDAYERDLEADIIGDTSGHFQKMLVVLLQGTREEDDVVSEDLVQQDVQDLYEAGELKWGTDEAQFIYILGNRSKQHLRLVFDEYLKTTGKPIEASIRGELSGDFEKLMLAVVKCIRSTPEYFAERLFKAMKGLGTRDNTLIRIMVSRSELDMLDIREIFRTKYEKSLYSMIKNDTSGEYKKTLLKLSGGDDDAAGQFFPEAAQVAYQMWELSAVARVELKGTVRPANDFNPDADAKALRKAMKGLGTDEDTIIDIITHRSNVQRQQIRQTFKSHFGRDLMTDLKSEISGDLARLILGLMMPPAHYDAKQLKKAMEGAGTDEKALIEILATRTNAEIRAINEAYKEDYHKSLEDALSSDTSGHFRRILISLATGHREEGGENLDQAREDAQVAAEILEIADTPSGDKTSLETRFMTILCTRSYPHLRRVFQEFIKMTNYDVEHTIKKEMSGDVRDAFVAIVQSVKNKPLFFADKLYKSMKGAGTDEKTLTRIMVSRSEIDLLNIRREFIEKYDKSLHQAIEGDTSGDFLKALLALCGGED [ANXA6] | 5.43 | 4.61 | -0.172 | 50 °C | 50 °C | 0.275 |
| MAKQKRKVPEVTEKKNKKLKKASAEGPLLGPEAAPSGEGAGSKGEAVLRPGLDAEPELSPEEQRVLERKLKKERKKEERQRLREAGLVAQHPPARRSGAELALDYLCRWAQKHKNWRFQKTRQTWLLLHMYDSDKVPDEHFSTLLAYLEGLQGRARELTVQKAEALMRELDEEGSDPPLPGRAQRIRQVLQLLS [C7ORF50] | 0.0776 | 0.494 | 0.57 | 50 °C | 53.5 °C | -0.289 |
| MAKRKEENFSSPKNAKRPRQEELEDFDKDGDEDECKGTTLTAAEVGIIESIHLKNFMCHSMLGPFKFGSNVNFVVGNNGSGKSAVLTALIVGLGGRAVATNRGSSLKGFVKDGQNSADISITLRNRGDDAFKASVYGNSILIQQHISIDGSRSYKLKSATGSVVSTRKEELIAILDHFNIQVDNPVSVLTQEMSKQFLQSKNEGDKYKFFMKATQLEQMKEDYSYIMETKERTKEQIHQGEERLTELKRQCVEKEERFQSIAGLSTMKTNLESLKHEMAWAVVNEIEKQLNAIRDNIKIGEDRAARLDRKMEEQQVRLNEAEQKYKDIQDKLEKISEETNARAPECMALKADVVAKKRAYNEAEVLYNRSLNEYKALKKDDEQLCKRIEELKKSTDQSLEPERLERQKKISWLKERVKAFQNQENSVNQEIEQFQQAIEKDKEEHGKIKREELDVKHALSYNQRQLKELKDSKTDRLKRFGPNVPALLEAIDDAYRQGHFTYKPVGPLGACIHLRDPELALAIESCLKGLLQAYCCHNHADERVLQALMKRFYLPGTSRPPIIVSEFRNEIYDVRHRAAYHPDFPTVLTALEIDNAVVANSLIDMRGIETVLLIKNNSVARAVMQSQKPPKNCREAFTADGDQVFAGRYYSSENTRPKFLSRDVDSEISDLENEVENKTAQILNLQQHLSALEKDIKHNEELLKRCQLHYKELKMKIRKNISEIRELENIEEHQSVDIATLEDEAQENKSKMKMVEEHMEQQKENMEHLKSLKIEAENKYDAIKFKINQLSELADPLKDELNLADSEVDNQKRGKRHYEEKQKEHLDTLNKKKRELDMKEKELEEKMSQARQICPERIEVEKSASILDKEINRLRQKIQAEHASHGDREEIMRQYQEARETYLDLDSKVRTLKKFIKLLGEIMEHRFKTYQQFRRCLTLRCKLYFDNLLSQRAYCGKMNFDHKNETLSISVQPGEGNKAAFNDMRALSGGERSFSTVCFILSLWSIAESPFRCLDEFDVYMDMVNRRIAMDLILKMADSQRFRQFILLTPQSMSSLPSSKLIRILRMSDPERGQTTLPFRPVTQEEDDDQR [SMC6] | 0.465 | -0.0501 | 0.0261 | 50.6 °C | 50.4 °C | -0.133 |
| MALDVKSRAKRYEKLDFLGEGQFATVYKARDKNTNQIVAIKKIKLGHRSEAKDGINRTALREIKLLQELSHPNIIGLLDAFGHKSNISLVFDFMETDLEVIIKDNSLVLTPSHIKAYMLMTLQGLEYLHQHWILHRDLKPNNLLLDENGVLKLADFGLAKSFGSPNRAYTHQVVTRWYRAPELLFGARMYGVGVDMWAVGCILAELLLRVPFLPGDSDLDQLTRIFETLGTPTEEQWPDMCSLPDYVTFKSFPGIPLHHIFSAAGDDLLDLIQGLFLFNPCARITATQALKMKYFSNRPGPTPGCQLPRPNCPVETLKEQSNPALAIKRKRTEALEQGGLPKKLIF [CDK7] | 0.106 | 1.13 | -0.142 | 51 °C | 51 °C | 0.167 |

— the supplement of paper PMC5998384
